Measured values reported in the supplement of paper PMC10724198.
± gives the standard deviation of the averaged measurements.

Tested on: Saccharomyces cerevisiae
Assay: protein stability index of tFT-peptide fusion (C-terminal peptide) (PSI (0-1 scale)); higher = more stable (slower turnover)
Details: genetic background: wild type; temperature: 30 C
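Note: PSI is a weighted mean of sequencing reads over stability bins, variants kept only with over 10 reads, mCherry proximal and sfGFP distal, peptide attached via GGGS linker.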

Sequence	protein stability index
PLSLSPLPSPPL	0.704 ± 0.041
PLSPPAPSPAPR	0.644 ± 0.0071
PLSPPLPPPLSL	0.681 ± 0.031
PLSPPPPPRPPL	0.728 ± 0.019
PLSPPPSLPVPL	0.659 ± 0.051
PLSPRLPRRRLP	0.681 ± 0.017
PLSSLSLPTPPT	0.707 ± 0.062
PLSTHNSLPRVK	0.691 ± 0.061
PLSVSLSLLTPR	0.74 ± 0.13
PLTNKTHRPPDK	0.702 ± 0.0091
PLVPSPSPPPAR	0.727 ± 0.031
PLWRVPPYPPSP	0.691 ± 0.031
PLWVFFRFSPNL	0.662 ± 0.01
PMNCIGTRGHQV	0.65854 ± 0.00043
PMPPPPPACSLD	0.777 ± 0.11
PNAPSLSPPSLF	0.624 ± 0.066
PNASPNPHRSNK	0.708 ± 0.062
PNESFLLPELNH	0.711 ± 0.0083
PNETQTQRPATR	0.683 ± 0.025
PNPPHPPPLPPA	0.595 ± 0.033
PNPRSPRPSPPS	0.687 ± 0.038
PPAFPPPPSPPP	0.636 ± 0.091
PPAHPRPPPPFL	0.762 ± 0.037

Sequence	protein stability index
PPAPLHLPSLPR	0.705 ± 0.018
PPAPPHLPPLPR	0.71574 ± 0.00046
PPAPPLPAPPWA	0.54 ± 0.032
PPAPPPLPPPPP	0.729 ± 0.0092
PPAPPPPTGLCL	0.755 ± 0.092
PPAPRPPLFPYP	0.697 ± 0.043
PPAPRPPSPRPP	0.693 ± 0.033
PPARIFRSLPTP	0.711 ± 0.047
PPASLRRLLPPP	0.654 ± 0.0066
PPASPPLPPPRP	0.689 ± 0.042
PPATTSATRVRP	0.698 ± 0.043
PPAVRRPRRGGN	0.699 ± 0.016
PPCGPPGPPIPP	0.592 ± 0.026
PPCLPPASRPVL	0.699 ± 0.0069
PPDPPPYAPPPP	0.648 ± 0.015
PPDPPWPRSPPA	0.588 ± 0.019
PPFLPLPPPPLP	0.731 ± 0.015
PPFLSAFPPHLP	0.724 ± 0.015
PPFPPPPRPPSS	0.645 ± 0.036
PPFTRLPPPLSS	0.741 ± 0.062
PPGPPRPFPSHL	0.785 ± 0.16
PPHFPLPLPPTP	0.706 ± 0.024
PPHPARHRPPAS	0.7321 ± 0.0016

Sequence	protein stability index
PPHPPRPPSPHP	0.707 ± 0.051
PPHPSPPPPSHS	0.693 ± 0.039
PPICLCHDPAAH	0.659 ± 0.013
PPLAPPPPPRPP	0.6 ± 0.072
PPLASSPPVLAR	0.514 ± 0.018
PPLCPPLPFLHP	0.885 ± 0.11
PPLDLPFPSRSI	0.745 ± 0.0078
PPLFPPPTLPEL	0.738 ± 0.02
PPLGPRPPSNST	0.6522 ± 0.0058
PPLKPRTSRPTI	0.682 ± 0.009
PPLLPLPPPPSP	0.625 ± 0.067
PPLLPLSQPLPH	0.683 ± 0.038
PPLLPPAPLFPP	0.694 ± 0.025
PPLPAPPAPAVQ	0.6991 ± 0.0027
PPLPFAISPPPA	0.6624 ± 0.0017
PPLPHPPLLAPP	0.748 ± 0.15
PPLPLPPPIRPP	0.6388 ± 0.0037
PPLPNLVYHLST	0.6195 ± 0.0054
PPLPPHPPPGQQ	0.697 ± 0.017
PPLPPLPLSLSI	0.742 ± 0.093
PPLPPLPPLPPP	0.72 ± 0.08
PPLPPPPPRLPA	0.636 ± 0.025
PPLPPQLVQDLL	0.72 ± 0.073

Sequence	protein stability index
PPLPPRPAPIPP	0.663 ± 0.033
PPLPPRPQTHLH	0.728 ± 0.074
PPLPPSPPAPPP	0.629 ± 0.0019
PPLPPSSPPPSS	0.6605 ± 0.0028
PPLPPTLSSIVI	0.599 ± 0.021
PPLPRPHHPYRR	0.708 ± 0.025
PPLRPPRPHQHS	0.636 ± 0.039
PPLSVLPFRFIL	0.575 ± 0.048
PPLTHASPLHLI	0.585 ± 0.021
PPLTRRSTLMSY	0.591 ± 0.042
PPLVPPTPAFPP	0.623 ± 0.028
PPNLLPPLSPSL	0.678 ± 0.08
PPPAAPPSSPLL	0.765 ± 0.071
PPPAPLPPRSSS	0.638 ± 0.086
PPPAPPLTFGHV	0.6852 ± 0.0031
PPPAPRPPASPP	0.69815 ± 0.00052
PPPAPRTPPLLP	0.736 ± 0.029
PPPDPPRHGRPE	0.684 ± 0.035
PPPDRLPPAHLP	0.721 ± 0.029
PPPFLPLCFPPL	0.691 ± 0.032
PPPFPPPPLFPL	0.714 ± 0.032
PPPGPPAVANRL	0.701 ± 0.072
PPPGPSPPPSPH	0.683 ± 0.074

Sequence	protein stability index
PPPGPSRRPAAL	0.726 ± 0.017
PPPHPHPFSLAL	0.691 ± 0.017
PPPHPLALPPPP	0.74 ± 0.03
PPPHPPPPLPPP	0.617 ± 0.01
PPPHPPPPPLPS	0.635 ± 0.021
PPPHPPRPPVPR	0.697 ± 0.016
PPPHRPPPRPPR	0.697 ± 0.0094
PPPHSPLPAPPR	0.76 ± 0.086
PPPLASLSPASP	0.624 ± 0.05
PPPLATPTPTRP	0.688 ± 0.17
PPPLLPPHPPGL	0.701 ± 0.0096
PPPLLPPLDAPS	0.721 ± 0.083
PPPLLSPAFFLP	0.727 ± 0.053
PPPLPGSLLPLP	0.72349 ± 0.00037
PPPLPPLPTALS	0.693 ± 0.0036
PPPLPPRMPPPF	0.72 ± 0.036
PPPLPRSPPPPF	0.74 ± 0.021
PPPLPSSPSPLL	0.679 ± 0.022
PPPLSLTPPFLY	0.673 ± 0.074
PPPLSPPTPPPP	0.674 ± 0.049
PPPLSSPGPPPL	0.704 ± 0.014
PPPLTPSPPPPP	0.663 ± 0.021
PPPLTYPTSPPS	0.661 ± 0.019

Sequence	protein stability index
PPPNLSSGVPFI	0.7051 ± 0.0025
PPPPALWPPPSP	0.735 ± 0.013
PPPPASPPHAPP	0.653 ± 0.07
PPPPFPLPSPSL	0.655 ± 0.022
PPPPGKTDRPSH	0.695 ± 0.055
PPPPGPGSAPPP	0.59 ± 0.065
PPPPGPPPLPLP	0.764 ± 0.058
PPPPGSKPPPSP	0.722 ± 0.028
PPPPHPPFPPRF	0.722 ± 0.047
PPPPHPPPSLRA	0.67716 ± 6e-05
PPPPHRSHLPHS	0.697 ± 0.03
PPPPLPPAPPLP	0.6607 ± 8.2e-05
PPPPLPPRPSPP	0.71 ± 0.074
PPPPLPSFPSSS	0.858 ± 0.062
PPPPLTPPHLSP	0.713 ± 0.039
PPPPPAPLPSSL	0.671 ± 0.02
PPPPPCSPPSPP	0.681 ± 0.025
PPPPPHPPPHTR	0.678 ± 0.017
PPPPPLHSSPWL	0.737 ± 0.14
PPPPPLLLPPPA	0.651 ± 0.038
PPPPPLLTRPLP	0.699 ± 0.081
PPPPPLPRSSLS	0.6968 ± 0.0041
PPPPPPAPPSPA	0.726 ± 0.051

Sequence	protein stability index
PPPPPPHPLLST	0.708 ± 0.073
PPPPPPLFPSPP	0.772 ± 0.13
PPPPPPLHATPL	0.6969 ± 0.0065
PPPPPPLSPCPS	0.704 ± 0.099
PPPPPPLSRTST	0.723 ± 0.082
PPPPPPPALPSL	0.6668 ± 0.0034
PPPPPPPAPPPC	0.7243 ± 0.0033
PPPPPPPDPVPP	0.645 ± 0.039
PPPPPPPHPPHL	0.728 ± 0.031
PPPPPPPLVPPS	0.595 ± 0.036
PPPPPPPPCGTP	0.633 ± 0.014
PPPPPPPPPCSP	0.7052 ± 0.0024
PPPPPPPPPPPL	0.677 ± 0.028
PPPPPPPPPPTL	0.712 ± 0.028
PPPPPPPPRLTP	0.754 ± 0.074
PPPPPPPPRPLL	0.787 ± 0.16
PPPPPPPPSSSL	0.6819 ± 0.0041
PPPPPPPSPLAP	0.707 ± 0.015
PPPPPPSPPLSP	0.677 ± 0.028
PPPPPPSPPPSP	0.633 ± 0.044
PPPPPPYHPTPP	0.6685 ± 0.0011
PPPPPRAPPLPP	0.679 ± 0.029
